Source: PMC5743566 (Theranostics, 2018)

Experiments:
Assay in all cases: immunostaining of cells or tissue
[1] = target: HBx of HBV genotype D (Hepatitis B virus genotype D, strain …, UniProt P03165, strain)
[2] = target: HBx of HBV genotype C (Hepatitis B virus genotype C, strain …, UniProt P0C686, strain)
[3] = target: HBx of HBV genotype A (Hepatitis B virus genotype A, strain …, UniProt P69713, strain)

Measured: binding result

B1: 9D11 mAb (antibody, V domains shown)
VH: QVQLQQPGAELVRPGASVKLSCKASGYSFTSFWISWVKQRPGQGLEWIAMIHPSDNGIRFNQKFKDKATLTVDKSSSTAYMQLNSPTSEDSAVYFCARAGTATFTYWGQGTLVTVSA
VL: DIQMTQTTSSLSVSLGDRVTISCRASQDISNYLNWYQQKPDGIVKLLIYYTSRLHSGVPSRFSGSGSGTDYSLTISNLEQEDLATYFCQQGNALPWTFGGGTKLEIK
binds: all assays above
